Patent US11015206B2, “Compositions and methods comprising sequences having hydroxyphenylpyruvate dioxygenase (HPPD) activity” (PIONEER HI-BRED INTERNATIONAL, INC., priority 2014, dated 2021)

What was measured:
Type in all cases: biochemical, Z. mays
[1] = system: 4-hydroxyphenylpyruvate dioxygenase (HPPD); assay: Insensitivity parameter (ON × OFF) and trait fitness (ON × OFF × kcat/KM or × kcat); conditions: for Insensitivity ON × OFF, Fold vs wt: vs maize wild type
Outline: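 Calculated, not measured directly: ON rate ratio × OFF rate ratio gives an insensitivity parameter serving as a KD surrogate.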

[2] = system: 4-hydroxyphenylpyruvate dioxygenase (HPPD); assay: ON rate ratio: HPPD reaction rate with vs without inhibitor in the 70 to 90 second interval; conditions: for ON rate ratio: mesotrione
Outline: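 Time courses of HPPD reactions, 60 or 120 nM enzyme with 100 μM HPP substrate, run with and without 4 μM inhibitor (e.g. mesotrione, tembotrione). Value is the rate with inhibitor over rate without, taken over 70–90 s; higher ratio reflects slower kON.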

[3] = system: 4-hydroxyphenylpyruvate dioxygenase (HPPD); assay: OFF rate ratio: release of inhibitor from pre-formed enzyme-inhibitor complex
Outline: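 HPPD (7.2 μM) pre-incubated 1 h at RT with inhibitor (8 μM), then diluted into 25 mM Hepes pH 7, 2 mM ascorbate, 10 μM FeSO4, 100 μM HPP, 50 nM HGD; A320 followed 12 min. Ratio = steady-state rate with inhibitor over initial rate of inhibitor-free enzyme.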

[4] = system: 4-hydroxyphenylpyruvate dioxygenase (HPPD); assay: HPPD activity coupled assay with HGD; substrate saturation kinetic parameters (kcat, KM)
Protocol: Wild type and shuffled variant genes were cloned into pVER7062, a modified version of pET24a(+)(Novagen), which places six histidine residues at the N-terminus of the expressed protein. Vectors were electroporated into E. coli host strain BL21(DE3). Cells were grown at 30 C in rich medium such as 2×YT containing the selection antibiotic, kanamycin. At a density of about 0.6 OD600, IPTG was added to 0.2 mM, the temperature was reduced to 16 C and growth continued for another 24 hrs. Cells were harvested by centrifugation and stored at −80 C. Cell pellets were lysed in BPER (Pierce) protein extraction reagent containing 0.2 mg/ml lysozyme, 1 mM dithiothreitol, protease inhibitor cocktail (Sigma, bacterial cocktail) and endonuclease. Insoluble cellular debris was removed by centrifugation. HPPD protein was purified from the soluble protein solution by affinity chromatography on the nickel form of nitrilotriacetic acid (Ni-NTA) resin (Qiagen). Protein concentrations were determined by the Bradford method, as supplied by Bio-Rad.
HPPD catalyzes the conversion of 4-hydroxyphenylpyruvate (HPP) to homogentisate (FIG. 17). […] However, the product of the ensuing reaction in tyrosine metabolism, maleylacetoacetate, absorbs strongly at 320 nm. Furthermore, the enzyme catalyzing that reaction is also a dioxygenase having similar mechanism and buffer requirements as HPPD, making homogentisate dioxygenase (HGD) an ideal partner in a coupled assay, as shown.
The HDG gene from Pseudomonas aeruginosa (Amaya (2004) Arch Biochem Biophys 421, 135-142) was cloned into pVER7062 and electroporated into E. coli strain BL21(DE3). The enzyme was produced by methods similar to those described for HPPD. The purified enzyme has a KM for homogentisate of 23 μM and a kcat of 100/sec, properties highly suited for instantly converting the homogentisate produced by HPPD to maleylacetoacetate.
HPPD activity was measured by placing an aliquot (e.g., 6 μl) of the substrate HPP at 50-fold the desired final concentration into the wells of a low UV-absorbing assay plate. Reactions were started by adding a mixture (e.g., 294 μl) containing 25 mM Hepes, pH 7, 2 mM ascorbate, 10 μM FeSO4, 1 to 100 μM HPP, 50 nM HGD and 5 to 240 nM HPPD. Absorbance at 320 nm was monitored continuously in a plate-reading spectrophotometer (Spectramax, Molecular Devices).
The catalytic performance of wild-type HPPD and variants generated by shuffling was assessed by determining the substrate saturation kinetic parameters. The Michaelis-Menten kinetics protocol of the Spectramax software was customized for HPP concentrations ranging from 3.33 μM to 100 μM. Reaction rates were measured as described above for each concentration of HPP. The software returns values of KM and Vmax using the Lineweaver-Burke transformation of the Michaelis-Menten equation.

[5] = system: 4-hydroxyphenylpyruvate dioxygenase (HPPD); assay: Estimate of kcat from initial rate at saturating hydroxyphenylpyruvate without inhibitor (ON rate ratio assay); conditions: Table 5; single substitutions in Round 7 variant 9070 (SEQ ID NO:2); estimate from initial rate at saturating hydroxyphenylpyruvate without inhibitor
Outline: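 Reactions used 60 or 120 nM HPPD and saturating 100 μM hydroxyphenylpyruvate without inhibitor. kcat was estimated from the initial rate at the known enzyme concentration.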

[6] = Table 2, E. coli purified proteins
[7] = Table 5, tembotrione, fold vs maize wild type HPPD

Row | Molecule | Fitness Fold vs Zm wt ([1]; mesotrione) | Insensitivity parameter, ON × OFF ([1]; mesotrione, Table 2) | Insensitivity ON × OFF, Fold vs wt ([1]; mesotrione) | ON rate ratio [2] | OFF rate ratio ([3]; mesotrione) | Km [4, 6] [µM] | kcat [4, 6] [s⁻¹] | other results
1 | R8-1973: Round 8, variant 1973 (SEQ ID NO:8), 26 amino acid substitutions relative to native maize HPPD (protein, Zea mays variant form created by artificial means.) MGPTPTATAAGAAVAAASAAEQAAFRLVGHRNFVRFNPRSDRFQTLAFHHVELWCADAASAAGRFSFALGVPLAARSDLSTGNSAHASLLLRSGSLSLLFTAPYAHGADAATAALPSFSAAAARRFAADHGLAVRAVALRVADAEDAFRASVAAGARPAFGPVDLGRGFRLAEVELYGDVVLRYVSYPDGAAGEPFLPGFEGVASPGAADLGLNRFDHIVGNVPELAPAAAYMAGFTGFHEFAEFTTEDVGTTESGLNSMALANNSENVLLPLNEPVHGTKRRSQIQTFLDHHGGPGVQHIALASDDVLRTLREMRARSAMGGFEFLPPPLSDYYDGVRKCAGDVLTEAQINECQELGVMVDRDDEGVLLQIFTKPVGDRPTFFLEIIQRIGCREKDEKGQEYQKGGCGGFGKGNFGQLFKSIEDYEKSLEKKRAAAAATAQGS | 12.2 | 0.73 | 11.9 | 0.73 | 1.00 | 2 | 1.18 | 
2 | SEQ ID NO:78: improved shuffled variant of maize HPPD (protein, Zea mays variant form created by artificial means.) MGPTPTATAAGAAVAAASAAEQAAFRLVGHRNFVRFNPRSDRFHTLAFHHVELWCADAASAAGRFSFALGAPLAARSDLSTGNSAHASLLLRSGSLSFLFTAPYAHGADAATAALPSFSAAAARRFAADHGLAVRAVALRVADAEDAFRASVAAGARPAFGPVDLGRGFRLAEVELYGDVVLRYVSYPDGAAGEPFLPGFEGVASPGAADYGLSRFDHIVGNVPELAPAAAYFAGFTGFHEFAEFTTEDVGTAESGLNSMALANNSENVLLPLNEPVHGTKRRSQIQTFLDHHGGPGVQHIALASDDVLRTLREMQARSAMGGFEFLPPPPSDYYDGVRRCAGDVLTEAQINECQELGVMVDRDDQGVLLQIFTKPVGDRPTFFLEIIQRIGCMEKDEKGQEYQKGGCGGFGKGNFGQLFKSIEDYEKSLEAKQAAAAATAQGS |  |  |  |  |  |  |  | time span to reach the steady state (dissociation from inhibitor) ([3]; mesotrione, enzyme 240 nM): 80 s; kcat ([4]; text b374): about 220 min^−1
3 | 206Q: single substitution P206Q in SEQ ID NO:2 (protein, Zea mays variant form created by artificial means.) MGPTPTATAAGAAVAAASAAEQAAFRLVGHRNFVRFNPRSDRFQTLAFHHVELWCADAASAAGRFSFALGVPLAARSDLSTGNSAHASLLLRSGSLSLLFTAPYAHGADAATAALPSFSAAAARRFAADHGLAVRAVALRVADAEDAFRASVAAGARPAFGPVDLGRGFRLAEVELYGDVVLRYVSYPDGAAGEPFLPGFEGVASQGAADYGLSRFDHIVGNVPELAPAAAYMAGFTGFHEFAEFTTEDVGTTESGLNSMALANNSENVLLPLNEPVHGTKRRSQIQTFLDHHGGPGVQHIALASDDVLRTLREMRARSAMGGFEFLPPPLSDYYDGVRRCAGDVLTEAQINECQELGVMVDRDDQGVLLQIFTKPVGDRPTFFLEIIQRIGCMEKDEKGQEYQKGGCGGFGKGNFGQLFKSIEDYEKSLEAKQAAAAATAQGS |  |  |  |  |  |  |  | kcat [5]: 0.59 s⁻¹; Insensitivity parameter, ON × OFF ([1]; DKN (diketonitrile form of isoxaflutole)): 0.26; ON × OFF × kcat/km fold vs Round 7, variant 9070 ([1]; DKN (isoxaflutole diketonitrile)): 1.2; Insensitivity parameter, ON × OFF ([1]; Mesotrione, Table 6): 0.46; ON × OFF × kcat/km fold vs Round 7, variant 9070 ([1]; Sulco (sulcotrione)): 1.0; Insensitivity parameter, ON × OFF ([1]; Sulcotrione): 0.53; ON × OFF × kcat, Value ([1]; Table 5, tembotrione): 5.57; ON × OFF × kcat, Fold vs wt [1, 7]: 5.20; ON × OFF, fold vs wt [1, 7]: 30.8; ON × OFF (parameters with tembotrione) ([1]; Table 5, tembotrione, insensitivity parameter): 0.16; Insensitivity parameter, ON × OFF ([1]; Tembotrione): 0.19; ON × OFF × kcat/km fold vs Round 7, variant 9070 ([1]; Topra (topramezone)): 1.1; Insensitivity parameter, ON × OFF ([1]; Topramezon): 0.27; ON × OFF × kcat/km fold vs Round 7, variant 9070 ([1]; meso (mesotrione)): 1.1; ON × OFF × kcat/km fold vs Round 7, variant 9070 ([1]; tembo (tembotrione)): 1.4; ON ratio (parameters with tembotrione) ([2]; Table 5, tembotrione): 0.74; OFF ratio (parameters with tembotrione) ([3]; Table 5, tembotrione): 0.21; Km ([4]; Table 6): 2.63 µM; kcat ([4]; Table 6, single substitutions in SEQ ID NO:2): 1.11 s⁻¹
4 | R6-9075: shuffled maize HPPD variant 9075, SEQ ID NO:79; 9070 with R316 changed to Q (protein, Zea mays variant form created by artificial means., 9070 with R316 changed to Q) MGPTPTATAAGAAVAAASAAEQAAFRLVGHRNFVRFNPRSDRFQTLAFHHVELWCADAASAAGRFSFALGVPLAARSDLSTGNSAHASLLLRSGSLSLLFTAPYAHGADAATAALPSFSAAAARRFAADHGLAVRAVALRVADAEDAFRASVAAGARPAFGPVDLGRGFRLAEVELYGDVVLRYVSYPDGAAGEPFLPGFEGVASPGAADYGLSRFDHIVGNVPELAPAAAYMAGFTGFHEFAEFTTEDVGTTESGLNSMALANNSENVLLPLNEPVHGTKRRSQIQTFLDHHGGPGVQHIALASDDVLRTLREMQARSAMGGFEFLPPPLSDYYDGVRRCAGDVLTEAQINECQELGVMVDRDDQGVLLQIFTKPVGDRPTFFLEIIQRIGCMEKDEKGQEYQKGGCGGFGKGNFGQLFKSIEDYEKSLEAKQAAAAATAQGS | 6.4 | 0.46 | 7.6 | 0.68 | 0.68 | 4 | 1.9 | 
5 | G. max wt: wild-type HPPD enzyme from soybean (protein, Glycine max, wild-type HPPD enzyme from soybean) MPMYTPSLSAPSSNHIQPSVTLPLYITTTKLNLKQQHHTTPMPIPMCNEIQAQAQAQAQPGFKLVGFKNFVRTNPKSDRFQVNRFHHIEFWCTDATNASRRFSWGLGMPIVAKSDLSTGNQIHASYLLRSGDLSFLFSAPYSPSLSAGSSAASSASIPSFDAATCLAFAAKHGFGVRAIALEVADAEAAFSASVAKGAEPASPPVLVDDRTGFAEVRLYGDVVLRYVSYKDAAPQAPHADPSRWFLPGFEAAASSSSFPELDYGIRRLDHAVGNVPELAPAVRYLKGFSGFHEFAEFTAEDVGTSESGLNSVVLANNSETVLLPLNEPVYGTKRKSQIETYLEHNEGAGVQHLALVTHDIFTTLREMRKRSFLGGFEFMPSPPPTYYANLHNRAADVLTVDQIKQCEELGILVDRDDQGTLLQIFTKPVGDRPTIFIEIIQRIGCMVEDEEGKVYQKGACGGFGKGNFSELFKSIEEYEKTLEAKRTA | 0.02 | 0.0014 | 0.023 | 0.20 | 0.007 | 3 | 1.67 | 
